# B1: Hairpin Ribozyme (parent)
# chain: GUCCUCUUUCACGUGCGCGUGAAAGAGAGAAGUGAACCAGAGAAACACACGUUGUGGUAUAUUACCUGGUA
# Variants of: B1
# Test: self-cleavage, relative activity (ratio to wild type); higher = more cleavage; co-transcriptional
row,Variant,self-cleavage
1,C18U A30U,0.203
2,C18U U55C,0.318
3,G19C C50U,0.397
4,G19C C50G,0.196
5,G17U A23G,0.632
6,G17U A23C,0.898
7,G19A U33A,0.0829
8,C18G G57C,0.194
9,C18G G51C,1.01
10,C18G C50U,0.24
11,C18U U52G,0.859
12,C18U U52C,0.928
13,G17C U62A,0.115
14,C18A G68A,0.272
15,G17C C50A,0.248
16,G17C C50U,0.286
17,G19A U62A,0.0978
18,C18G G42A,0.179
19,C18G G42U,0.279
20,G17U A49C,0.177
21,G17U G57C,0.151
22,G17U G57A,0.201
23,G17U G57U,0.264
24,G19A U58C,0.856

row,Variant,self-cleavage
1,C18G G19U,0.88
2,C18G G19A,0.907
3,G19A G25A,0.368
4,C18A A39U,0.345
5,C18A A39C,0.538
6,G17U A26U,0.632
7,G19C A30C,0.221
8,C18U G34A,1.3
9,C18U C50G,0.217
10,C18U U62A,0.225
11,G17C G51C,0.668
12,G17C G51A,0.718
13,C18U A41U,1.21
14,G17U A59G,0.192
15,C18A U67G,0.329
16,C18A U67A,0.191
17,G19C A71C,1.24
18,C18A A22C,1.04
19,C18A A22U,0.794
20,G19A A26U,0.563
21,C18U A26C,0.525
22,G19A G21U,0.727
23,C18A U63G,0.204
24,C18A U63A,0.13

row,Variant,self-cleavage
1,G19A A41G,0.754
2,C18U C46A,0.252
3,C18G G68C,0.266
4,G17C C66U,0.346
5,C18G A24G,0.927
6,C18G A24C,0.731
7,G19A A61C,0.169
8,C18U G25C,0.491
9,C18U G25A,0.703
10,G17C G56C,0.171
11,G17C G56U,0.185
12,C18G U70G,0.537
13,C18A A36C,0.711
14,G19C A44C,0.152
15,G19A A24G,0.737
16,G17U G21A,0.491
17,C18G A35C,0.797
18,C18G A71C,1.35
19,G19C A45U,0.142
20,C18U G56A,0.135
21,C18G G69U,0.162
22,G19A G56C,0.136
23,G19A G56A,0.124
24,C18G A45U,0.228

row,Variant,self-cleavage
1,G17U U33A,0.116
2,C18A A31G,0.746
3,C18A A31U,0.0438
4,C18U A43C,0.164
5,G17U G56A,0.194
6,G17U G56C,0.126
7,G17C U58G,0.432
8,G19C A41G,0.743
9,G19A A23C,0.763
10,G19A A23U,0.711
11,G17U U52G,0.8
12,G17U U52A,1.21
13,G17U A45C,0.156
14,G19C A61C,0.333
15,G17C G42C,0.306
16,G17C G42U,0.134
17,G19C A22G,0.866
18,G19C A22C,0.702
19,C18A G27U,0.332
20,G17U G40C,0.18
21,G17U G40A,0.342
22,G17U G19A,0.629
23,G17U G54U,0.579
24,G17U G54A,0.642

row,Variant,self-cleavage
1,G17C C65U,0.24
2,G17C C65G,0.339
3,C18A A30U,0.16
4,G19A C37A,0.264
5,G19A A30U,0.14
6,G19A C66G,0.168
7,G19A C66A,0.314
8,G19A C66U,0.344
9,C18A C50G,0.309
10,G17C G27A,0.419
11,G17C G27C,0.154
12,G17C G27U,0.116
13,G19A G32C,0.111
14,C18A A44C,0.219
15,G19A A49C,0.131
16,G19A A49U,0.17
17,G19C A36U,0.603
18,C18A G34C,1.56
19,C18U A22G,0.784
20,C18U A22C,0.949
21,C18U A22U,1.1
22,G17C U55C,0.216
23,C18A U55G,0.296
24,C18A U55A,0.364

row,Variant,self-cleavage
1,C18G U20G,0.724
2,C18G A39G,0.281
3,C18G A39C,0.587
4,C18G A39U,0.474
5,C18G A47G,0.198
6,G17C C48A,0.173
7,G19A G40C,0.0669
8,C18A G69U,0.339
9,C18A G69C,0.403
10,C18U U58A,0.657
11,G19A A71C,1.38
12,C18A C46G,0.12
13,G17U U63A,0.128
14,G19A A36G,0.997
15,C18U G69A,0.476
16,G17U C37U,0.564
17,G17U C37G,0.256
18,G17U A47C,0.347
19,G17U U60C,1.35
20,C18G G40U,0.187
21,C18G G40C,0.0865
22,G17U C65A,0.892
23,G17U C65G,0.269
24,G17U C50A,0.232

row,Variant,self-cleavage
1,G17U C50U,0.326
2,C18G U55C,0.233
3,C18G U55A,0.145
4,C18A G32U,0.135
5,G17U U62C,0.138
6,G17C G54U,0.417
7,G19C A39C,0.44
8,G19C A39U,0.441
9,G19C A64U,0.135
10,G19C A64C,0.182
11,C18G A49G,0.344
12,C18G C38U,0.44
13,G19C A26C,0.272
14,C18U A47G,0.15
15,C18U G57C,0.157
16,G17U A64C,0.245
17,G17U A64U,0.16
18,C18A U58A,0.577
19,C18A U58G,0.652
20,G17C G32A,0.131
21,G17C G32U,0.0811
22,G17U A39G,0.29
23,C18A G51C,0.896
24,C18A G51U,1.12

row,Variant,self-cleavage
1,G17U G69C,0.296
2,C18A U70A,0.916
3,C18U A23U,0.997
4,C18U A23C,0.898
5,G17U A71C,1.39
6,C18G G21C,0.706
7,C18G G21U,0.651
8,G17U A31G,0.6
9,G19C A23U,0.656
10,G17U U55G,0.351
11,G19A U67G,0.199
12,C18G A23C,0.746
13,G19C A49U,0.207
14,C18U A28U,0.606
15,C18U A28C,0.66
16,G17U A44G,0.273
17,C18U U33C,0.172
18,C18U U33G,0.0901
19,C18A G54U,0.62
20,C18U C37A,0.329
21,C18U C37G,0.352
22,C18A G57U,0.439
23,G17U G29C,0.105
24,C18G G25C,0.454

row,Variant,self-cleavage
1,C18G G25U,0.47
2,C18A A23G,1.02
3,C18G A44G,0.113
4,G19A A31C,0.136
5,G19A A31U,0.176
6,C18G G27A,0.407
7,C18A A49C,0.208
8,C18A C48G,0.0794
9,G19A G42A,0.202
10,C18G G32C,0.0857
11,C18A A59C,0.159
12,G19C A47C,0.207
13,G19C A47U,0.152
14,C18U A45G,0.174
15,C18U A45U,0.109
16,G19A A47C,0.308
17,G19C C37G,0.356
18,G19C C37U,0.454
19,G19C C37A,0.32
20,C18G U63C,0.276
21,C18G U63G,0.27
22,G19A C38A,0.153
23,C18A A24G,0.95
24,G19A A28C,0.417

row,Variant,self-cleavage
1,G19A U70A,0.599
2,C18G U33G,0.123
3,C18G U33C,0.164
4,G19A A22U,0.531
5,G19A A22G,0.714
6,G17U A24U,0.865
7,C18U G54C,0.543
8,C18A A47U,0.181
9,C18U U53C,1.03
10,G19A C46A,0.176
11,G19A C46U,0.165
12,C18U A35U,0.802
13,G19A U20G,0.786
14,G19A C48G,0.153
15,G19A C48U,0.179
16,G17U C48U,0.11
17,G17U C48G,0.0807
18,C18G A28G,1.11
19,C18G A28C,0.445
20,G19A A45C,0.108
21,G19A A45G,0.195
22,G19C A35G,0.74
23,G17C G40C,0.168
24,G17C G40A,0.253

row,Variant,self-cleavage
1,G19C C38G,0.142
2,C18G C46U,0.0966
3,G17C U60A,0.582
4,G19A G54U,0.535
5,G19A G54A,0.51
6,G19A U63A,0.104
7,G19A U63C,0.213
8,G17C U52G,0.821
9,G17C U52A,0.816
10,G17U A43U,0.0903
11,G17U A43C,0.0947
12,C18A A28C,0.492
13,C18A A28G,1.43
14,G19C A43G,0.219
15,C18A A26U,0.898
16,C18A A26G,0.888
17,C18A A26C,0.527
18,C18G A36C,0.473
19,G17C G25A,0.417
20,G17C G25U,0.505
21,C18U A24G,1.04
22,C18U A24U,0.844
23,G19A G51A,1.07
24,G17C G68C,0.238

row,Variant,self-cleavage
1,C18U U70G,0.973
2,C18G G56U,0.2
3,G19C A28U,0.63
4,C18U C38U,0.529
5,G17U A30G,0.134
6,C18G C65A,0.871
7,C18G C65U,0.213
8,C18A U20C,0.97
9,G19A U52A,0.809
10,G17U G42C,0.281
11,G19C C65U,0.337
12,G17U G27A,0.374
13,G17U G27U,0.239
14,G17U G27C,0.165
15,G17U U20A,0.59
16,C18A A61U,0.138
17,C18A A61C,0.132
18,C18A A61G,0.25
19,C18U G51U,0.993
20,C18A A45G,0.187
21,G17C U63C,0.276
22,C18U A36C,0.65
23,C18U A36U,0.634
24,C18A A35C,1.2

row,Variant,self-cleavage
1,C18A C38U,0.526
2,C18A C38G,0.213
3,C18U G27A,0.433
4,C18G A30U,0.0888
5,C18G A30C,0.275
6,C18A G56C,0.136
7,G19A G27A,0.243
8,G19A G27C,0.321
9,G17U G25C,0.682
10,G17U G25A,0.653
11,G17C G69C,0.124
12,G19A G34U,1.18
13,G19A G34C,1.32
14,G19A G34A,1.02
15,G17C G29C,0.113
16,C18U U60C,1.28
17,C18U U60G,0.719
18,G19A A59G,0.2
19,G19A G57U,0.289
20,C18A C65G,0.091
21,C18A G21A,0.895
22,C18A G21C,0.885
23,C18G G29C,0.133
24,G17C G21A,0.618

row,Variant,self-cleavage
1,G17C G21C,0.494
2,G17U C18A,0.966
3,G17U C18U,0.926
4,G17U C18G,0.979
5,C18A G19U,0.923
6,C18A A41U,1.37
7,G17U G68A,0.258
8,C18G U62C,0.2
9,C18G U62A,0.2
10,C18U C66U,0.554
11,C18U G19U,1.1
12,G17C G19U,0.502
13,G17C C46U,0.113
14,G19A A64G,0.579
15,G17C U67G,0.161
16,G17U C38G,0.158
17,C18U A71U,0.832
18,C18U G42A,0.167
19,C18U G42C,0.416
20,C18G A43G,0.0801
21,C18A C37G,0.351
22,C18G A26G,0.828

# — the RNAGym collection of RNA variant scans (doi:10.7554/elife.80360)
